System: C[C@@H](O)[C@H]1C(=O)N2C(C(=O)O)=C([C@H]3CCCO3)S[C@H]12
Assay: purified protein
Conditions: two Zn2+ ions active site

VIM-2 (Pseudomonas aeruginosa)
Km: 5.11 µM | kcat: 36.7 s⁻¹ | kcat/Km: 7.17e+06 M⁻¹ s⁻¹

From article PMC7614720
